Laboratory results reported in IntAct's records for PubMed 37100772.

B1: Nucleoprotein (Human coronavirus 229E), P15130 (parent)
chain: MATVKWADASEPQRGRQGRIPYSLYSPLLVDSEQPWKVIPRNLVPINKKDKNKLIGYWNVQKRFRTRKGKRVDLSPKLHFYYLGTGPHKDAKFRERVEGVVWVAVDGAKTEPTGYGVRRKNSEPEIPHFNQKLPNGVTVVEEPDSRAPSRSQSRSQSRGRGESKPQSRNPSSDRNHNSQDDIMKAVAAALKSLGFDKPQEKDKKSAKTGTPKPSRNQSPASSQTSAKSLARSQSSETKEQKHEMQKPRWKRQPNDDVTSNVTQCFGPRDLDHNFGSAGVVANGVKAKGYPQFAELVPSTAAMLFDSHIVSKESGNTVVLTFTTRVTVPKDHPHLGKFLEELNAFTREMQQHPLLNPSALEFNPSQTSPATAEPVRDEVSIETDIIDEVN

Variants of: B1
Details: with pabp1_human PABPC1, P11940
Sequence of pabp1_human PABPC1, P11940 (P11940 whole entry): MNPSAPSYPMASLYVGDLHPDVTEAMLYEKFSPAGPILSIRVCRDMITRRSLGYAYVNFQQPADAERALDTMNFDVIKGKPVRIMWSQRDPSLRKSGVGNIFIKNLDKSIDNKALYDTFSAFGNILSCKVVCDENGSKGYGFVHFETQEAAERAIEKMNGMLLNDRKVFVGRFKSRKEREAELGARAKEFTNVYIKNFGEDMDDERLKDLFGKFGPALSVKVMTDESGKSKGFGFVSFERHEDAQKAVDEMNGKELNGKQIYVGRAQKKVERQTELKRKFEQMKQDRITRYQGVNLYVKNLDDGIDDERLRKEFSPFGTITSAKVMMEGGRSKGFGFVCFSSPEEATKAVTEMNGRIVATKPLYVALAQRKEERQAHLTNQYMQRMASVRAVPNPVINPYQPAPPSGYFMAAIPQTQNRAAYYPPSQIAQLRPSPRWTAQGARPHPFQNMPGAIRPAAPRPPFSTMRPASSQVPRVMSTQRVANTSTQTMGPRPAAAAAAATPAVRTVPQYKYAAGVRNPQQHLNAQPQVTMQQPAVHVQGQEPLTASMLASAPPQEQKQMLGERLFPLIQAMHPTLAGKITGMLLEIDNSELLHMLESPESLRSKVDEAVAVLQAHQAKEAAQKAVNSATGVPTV

| Variant | effect of a mutation on the interaction |
| --- | --- |
| L354A;N355G;P356G;A358G;F361A;N362A;P363G | disrupting interaction strength |
